Literature values in publication PMC2853182.

Biological target: Protective antigen (PA) (Bacillus anthracis) (UniProt P13423)

CMG2 soluble domain (from UniProt P58335)
Kd: 2 nM
